These results are taken from US20060257938A1, “Method of screening for drugs that block ligand binding to a lipid binding protein” (priority 2005, published 2006).

Format in all cases: binding
The nature of assay [1]: Probe fluorescence ratio response to arachidonic acid relative to ADIFAB2. To be noted: arachidonic acid; response relative to ADIFAB2. In outline: (§1)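 Fluorescently labeled rat intestinal FABP variants were read at two emission wavelengths, near the unbound maximum (about 420 to 480 nm) and the FFA-bound maximum (about 495 to 580 nm). R = Fλ1/Fλ2 after subtracting probe-free intensity; ΔR = R+agent − R0, normalized to ADIFAB2 (rI-FABP-L72A).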

The nature of assay [2]: Probe fluorescence ratio response to linolenic acid relative to ADIFAB2. As to conditions: response relative to ADIFAB2. In outline: as §1
Assay [3] in a line: Probe fluorescence ratio response to linoleic acid relative to ADIFAB2. To be noted: response relative to ADIFAB2. The method, boiled down:
as §1

A short description of assay [4]: Probe fluorescence ratio response to oleic acid relative to ADIFAB2. To be noted: response relative to ADIFAB2. The method, boiled down: as §1
Assay [5] is described as follows: Probe fluorescence ratio response to palmitic acid relative to ADIFAB2. To be noted: response relative to ADIFAB2. The method, boiled down:
as §1

The nature of assay [6]: Probe fluorescence ratio response to palmitoleic acid relative to ADIFAB2. As to conditions: response relative to ADIFAB2. In outline:
as §1

The nature of assay [7]: Probe fluorescence ratio response to stearic acid relative to ADIFAB2. To be noted: response relative to ADIFAB2. In outline: as §1

B1: 14Q 18L 31A 73W 117V 72A (protein, listed as Rattus norvegicus)
chain: AFDGTWKVDRNENQEKFLEKMGINVVKRKLAAHDNLKLTITQEGNKFTVKESSNFRNIDVVFELGVDFAYSAWDGTELTGTWTMEGNKLVGKFKRVDNGKELIAVREISGNELIQTVTYEGVEAKRIFKKE
modifications: PEPTIDE (1)...(131) wild-type rat intestinal fatty acid binding protein
Turning to B1, the “DR/DR AA” value in assay [1] is recorded as 1.558. Further, in assay [2], the “DR/DR LNA” value worked out at 1.958. Moreover, in assay [3], the “DR/DR LA” value was 1.942. Further, the “DR/DR OA” value in assay [4] was 1.478. Besides, the “DR/DR PA” value in assay [5] is 1.084. In assay [6], the “DR/DR POA” value was 2.008. Besides, in assay [7], the “DR/DR SA” value is recorded as 0.384.

B2: 72I 73W 74N (protein, listed as Rattus norvegicus)
chain: AFDGTWKVDRNENYEKFMEKMGINVVKRKLGAHDNLKLTITQEGNKFTVKESSNFRNIDVVFELGVDFAYSIWNGTELTGTWTMEGNKLVGKFKRVDNGKELIAVREISGNELIQTYTYEGVEAKRIFKKE
modifications: PEPTIDE (1)...(131) wild-type rat intestinal fatty acid binding protein
Regarding B2, the “DR/DR AA” value in assay [1] amounted to 0.791. Moreover, in assay [2], the “DR/DR LNA” value worked out at 1.794. Also, in assay [3], the “DR/DR LA” value was found to be 1.194. Further, in assay [4], the “DR/DR OA” value amounted to 0.779. In addition, the “DR/DR PA” value in assay [5] was found to be 2.091. Also, the “DR/DR POA” value in assay [6] is on record as 3.236. Also, the “DR/DR SA” value in assay [7] stood at 0.329.

B3: 18V 31A 55W 73W 72A (protein, listed as Rattus norvegicus)
chain: AFDGTWKVDRNENYEKFVEKMGINVVKRKLAAHDNLKLTITQEGNKFTVKESSNWRNIDVVFELGVDFAYSAWDGTELTGTWTMEGNKLVGKFKRVDNGKELIAVREISGNELIQTYTYEGVEAKRIFKKE
modifications: PEPTIDE (1)...(131) wild-type rat intestinal fatty acid binding protein
B3: the “DR/DR AA” value in assay [1] was 1.130. For the same molecule, the “DR/DR LNA” value in assay [2] worked out at 1.887. In addition, the “DR/DR LA” value in assay [3] turned out to be 1.555. Besides, in assay [4], the “DR/DR OA” value turned out to be 0.913. Also, the “DR/DR PA” value in assay [5] was 1.505. Also, the “DR/DR POA” value in assay [6] came out at 2.042. Moreover, the “DR/DR SA” value in assay [7] was 0.392.

B4: 72S 73W 74G (protein, listed as Rattus norvegicus)
chain: AFDGTWKVDRNENYEKFMEKMGINVVKRKLGAHDNLKLTITQEGNKFTVKESSNFRNIDVVFELGVDFAYSSWGGTELTGTWTMEGNKLVGKFKRVDNGKELIAVREISGNELIQTYTYEGVEAKRIFKKE
modifications: PEPTIDE (1)...(131) wild-type rat intestinal fatty acid binding protein
As for B4, the “DR/DR AA” value in assay [1] worked out at 1.012. For the same molecule, the “DR/DR LNA” value in assay [2] is reported as 1.706. Besides, the “DR/DR LA” value in assay [3] was 1.375. Moreover, in assay [4], the “DR/DR OA” value was found to be 0.970. Further, the “DR/DR PA” value in assay [5] worked out at 1.653. Further, the “DR/DR POA” value in assay [6] is recorded as 2.422. Further, the “DR/DR SA” value in assay [7] is given as 0.411.

B5: 18I 31L 55L 72A (protein, listed as Rattus norvegicus)
chain: AFDGTWKVDRNENYEKFIEKMGINVVKRKLLAHDNLKLTITQEGNKFTVKESSNLRNIDVVFELGVDFAYSAADGTELTGTWTMEGNKLVGKFKRVDNGKELIAVREISGNELIQTYTYEGVEAKRIFKKE
modifications: PEPTIDE (1)...(131) wild-type rat intestinal fatty acid binding protein
For B5, in assay [1], the “DR/DR AA” value was 1.285. Also, the “DR/DR LNA” value in assay [2] came to 1.736. The “DR/DR LA” value in assay [3] is 1.442. The “DR/DR OA” value in assay [4] was 0.759. The “DR/DR PA” value in assay [5] is given as 1.523. Moreover, in assay [6], the “DR/DR POA” value was determined as 2.011. Besides, the “DR/DR SA” value in assay [7] was found to be 0.310.

B6: 18I 31I 55M 73I 72A (protein, listed as Rattus norvegicus)
chain: AFDGTWKVDRNENYEKFIEKMGINVVKRKLIAHDNLKLTITQEGNKFTVKESSNMRNIDVVFELGVDFAYSAIDGTELTGTWTMEGNKLVGKFKRVDNGKELIAVREISGNELIQTYTYEGVEAKRIFKKE
modifications: PEPTIDE (1)...(131) wild-type rat intestinal fatty acid binding protein
Regarding B6, the “DR/DR AA” value in assay [1] is on record as 1.354. Moreover, the “DR/DR LNA” value in assay [2] stood at 1.803. In addition, in assay [3], the “DR/DR LA” value came out at 1.516. In addition, the “DR/DR OA” value in assay [4] was found to be 0.822. The “DR/DR PA” value in assay [5] came out at 1.546. For the same molecule, the “DR/DR POA” value in assay [6] worked out at 1.903. The “DR/DR SA” value in assay [7] is 0.382.

B7: 18I 31V 73G 72A (protein, listed as Rattus norvegicus)
chain: AFDGTWKVDRNENYEKFIEKMGINVVKRKLVAHDNLKLTITQEGNKFTVKESSNFRNIDVVFELGVDFAYSAGDGTELTGTWTMEGNKLVGKFKRVDNGKELIAVREISGNELIQTYTYEGVEAKRIFKKE
modifications: PEPTIDE (1)...(131) wild-type rat intestinal fatty acid binding protein
In the case of B7, the “DR/DR AA” value in assay [1] is reported as 1.348. Besides, the “DR/DR LNA” value in assay [2] was determined as 1.946. The “DR/DR LA” value in assay [3] is reported as 1.715. Besides, the “DR/DR OA” value in assay [4] is on record as 0.968. Moreover, in assay [5], the “DR/DR PA” value was found to be 1.630. In addition, the “DR/DR POA” value in assay [6] came out at 2.122. Further, the “DR/DR SA” value in assay [7] was 0.543.

B8: 55V 73F 72A (protein, listed as Rattus norvegicus)
chain: AFDGTWKVDRNENYEKFMEKMGINVVKRKLGAHDNLKLTITQEGNKFTVKESSNVRNIDVVFELGVDFAYSAFDGTELTGTWTMEGNKLVGKFKRVDNGKELIAVREISGNELIQTYTYEGVEAKRIFKKE
modifications: PEPTIDE (1)...(131) wild-type rat intestinal fatty acid binding protein
For the molecule B8, in assay [1], the “DR/DR AA” value came out at 0.864. Moreover, the “DR/DR LNA” value in assay [2] is on record as 1.566. Also, the “DR/DR LA” value in assay [3] amounted to 1.223. The “DR/DR OA” value in assay [4] worked out at 0.661. Further, the “DR/DR PA” value in assay [5] turned out to be 1.082. In assay [6], the “DR/DR POA” value came out at 2.264. Besides, the “DR/DR SA” value in assay [7] is on record as 0.285.

B9: 72S 73Q 74A (protein, listed as Rattus norvegicus)
chain: AFDGTWKVDRNENYEKFMEKMGINVVKRKLGAHDNLKLTITQEGNKFTVKESSNFRNIDVVFELGVDFAYSSQAGTELTGTWTMEGNKLVGKFKRVDNGKELIAVREISGNELIQTYTYEGVEAKRIFKKE
modifications: PEPTIDE (1)...(131) wild-type rat intestinal fatty acid binding protein
As for B9, in assay [1], the “DR/DR AA” value was 2.290. The “DR/DR LNA” value in assay [2] worked out at 2.077. Further, the “DR/DR LA” value in assay [3] is 2.140. Besides, the “DR/DR OA” value in assay [4] came out at 1.875. For the same molecule, the “DR/DR PA” value in assay [5] is 1.896. In addition, in assay [6], the “DR/DR POA” value stood at 2.293. Further, the “DR/DR SA” value in assay [7] is on record as 1.311.

B10: 74T 72A 73F (protein, listed as Rattus norvegicus)
chain: AFDGTWKVDRNENYEKFMEKMGINVVKRKLGAHDNLKLTITQEGNKFTVKESSNFRNIDVVFELGVDFAYSAFTGTELTGTWTMEGNKLVGKFKRVDNGKELIAVREISGNELIQTYTYEGVEAKRIFKKE
modifications: PEPTIDE (1)...(131) wild-type rat intestinal fatty acid binding protein
Take B10: the “DR/DR AA” value in assay [1] came to 0.852. Besides, in assay [2], the “DR/DR LNA” value worked out at 1.635. Moreover, in assay [3], the “DR/DR LA” value is reported as 1.185. In addition, the “DR/DR OA” value in assay [4] is reported as 0.634. Moreover, the “DR/DR PA” value in assay [5] was 1.150. Further, the “DR/DR POA” value in assay [6] turned out to be 2.309. Also, the “DR/DR SA” value in assay [7] is reported as 0.273.

B11: 73F 72A (protein, listed as Rattus norvegicus)
chain: AFDGTWKVDRNENYEKFMEKMGINVVKRKLGAHDNLKLTITQEGNKFTVKESSNFRNIDVVFELGVDFAYSAFDGTELTGTWTMEGNKLVGKFKRVDNGKELIAVREISGNELIQTYTYEGVEAKRIFKKE
modifications: PEPTIDE (1)...(131) wild-type rat intestinal fatty acid binding protein
Regarding B11, in assay [1], the “DR/DR AA” value was found to be 1.051. Further, the “DR/DR LNA” value in assay [2] is reported as 1.775. The “DR/DR LA” value in assay [3] is on record as 1.171. In addition, the “DR/DR OA” value in assay [4] was determined as 0.630. Moreover, in assay [5], the “DR/DR PA” value worked out at 1.118. In assay [6], the “DR/DR POA” value turned out to be 2.381. For the same molecule, the “DR/DR SA” value in assay [7] is on record as 0.399.

B12: 74E 72A 73F (protein, listed as Rattus norvegicus)
chain: AFDGTWKVDRNENYEKFMEKMGINVVKRKLGAHDNLKLTITQEGNKFTVKESSNFRNIDVVFELGVDFAYSAFEGTELTGTWTMEGNKLVGKFKRVDNGKELIAVREISGNELIQTYTYEGVEAKRIFKKE
modifications: PEPTIDE (1)...(131) wild-type rat intestinal fatty acid binding protein
Regarding B12, the “DR/DR AA” value in assay [1] was determined as 0.703. Further, in assay [2], the “DR/DR LNA” value is 1.558. Besides, the “DR/DR LA” value in assay [3] amounted to 1.093. The “DR/DR OA” value in assay [4] is listed as 0.575. Further, in assay [5], the “DR/DR PA” value was 1.026. In assay [6], the “DR/DR POA” value worked out at 2.395. For the same molecule, the “DR/DR SA” value in assay [7] is listed as 0.251.

B13: 73T 72A 74F (protein, listed as Rattus norvegicus)
chain: AFDGTWKVDRNENYEKFMEKMGINVVKRKLGAHDNLKLTITQEGNKFTVKESSNFRNIDVVFELGVDFAYSATFGTELTGTWTMEGNKLVGKFKRVDNGKELIAVREISGNELIQTYTYEGVEAKRIFKKE
modifications: PEPTIDE (1)...(131) wild-type rat intestinal fatty acid binding protein
Regarding B13, the “DR/DR AA” value in assay [1] turned out to be 0.939. In addition, the “DR/DR LNA” value in assay [2] is recorded as 1.661. The “DR/DR LA” value in assay [3] is given as 1.389. Also, in assay [4], the “DR/DR OA” value is on record as 1.161. The “DR/DR PA” value in assay [5] turned out to be 1.632. In addition, the “DR/DR POA” value in assay [6] is reported as 2.450. Besides, the “DR/DR SA” value in assay [7] is 0.519.
